Results on one protein are retold here after article PMC10761123 (RNA Biology, 2023).

The series deals with the molecule itself. As to the kind of experiment: crystal structure.

B1: Arabidopsis thaliana PUMY K185A mutant, C-terminal His-tagged, as crystallized (enzyme, UniProt Q84K35 21-330, looked up)
chain: EANNKLRSLVKISPQVSEALSNGRAVVALESTIISHGMPYPQNLQTAKEVESIVRENGAIPATIAILNGVPCIGLSEEELERLASLGKSVQKTAGRDIANVVATRGNGATTVSATLFFASMVGIQVFVTGGIGGVHRHANHSMDISSDLTALGRTPIAVISAGVASILDIPKTLEYLETQEVYVAAYKSDEFPAFFTEKSGCKAPSRVNSPEDCARVIDANMKLNRQAGILFAIPIPKHHSAAGNLIESATQRALTEAREQNVTGNAETPFLLARVNELTGGTSLAANIALVKNNALIGSQIAVALSQLM
Turning to B1, the “stoichiometry N” value stood at 3.
